Reference: the supplement of paper PMC12667976
± gives the standard error.

B1: library; numbered along this chain (parent)
chain: MATDAALRRLLRLHRTEIAVAVDSAFPLLHALADHDVVPEDKFQETLHLKEKEGCPQAFHALLSWLLTQDSTAILDFWRVLFKDYNLERYGRLQPILDSFPKDVDLSQPRKGRKPPAVPKALVPPPRLPTKRKASEEARAAAPAALTPRGTASPGSQLKAKPPKKPESSAEQQRLPLGNGIQTMSASVQRAVAMSSGDVPGARGAVEGILIQQVFESGGSKKCIQVGGEFYTPSKFEDSGSGKNKARSSSGPKPLVRAKGAQGAAPGGGEARLGQQGSVPAPLALPSDPQLHQKNEDECAVCRDGGELICCDGCPRAFHLACLSPPLREIPSGTWRCSSCLQATVQEVQPRAEEPRPQEPPVETPLPPGLRSAGEEVRGPPGEPLAGMDTTLVYKHLPAPPSAAPLPGLDSSALHPLLCVGPEGQQNLAPGARCGVCGDGTDVLRCTHCAAAFHWRCHFPAGTSRPGTGLRCRSCSGDVTPAPVEGVLAPSPARLAPGPAKDDTASHEPALHRDDLESLLSEHTFDGILQWAIQSMARPAAPFPS

Variants of: B1
Test: AIRE transcriptional activation functional score (insulin promoter-GFP; nonsense median 0, synonymous median 1) (normalised score); higher = higher AIRE activity (more reporter activation)
Conditions: with insulin promoter-GFP reporter in HEK293
Description: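 Deep mutational scan of full-length human AIRE (codon-optimized cDNA, DT-POPCode NNN libraries over three regions) integrated at a Bxb1 landing pad in HEK293 cells carrying an insulin core promoter-GFP reporter at a Flp-In site. Cells were sorted for the top 10% GFP about 14 days after transfection. Variant frequency log-ratios (select vs non-select, TileSeq) were rescaled so that the nonsense median is 0 and the synonymous median is 1, then averaged over biological replicates.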

In order of rising “AIRE transcriptional activation functional score” value:
1. V80N  -6.41 ± 1
2. D70W  -0.512 ± 0.13
3. F26E  -0.35 ± 0.31
4. A21Q  -0.205 ± 0.34
5. C446D  -0.0826 ± 0.091
6. F26D  0.00972 ± 0.37
7. Y90P  0.0423 ± 0.54
8. A21G  0.0519 ± 0.54
9. D442L  0.0551 ± 0.12
10. R139P  0.0776 ± 0.31
11. P126T  0.134 ± 0.17
12. F100L  0.191 ± 0.33
13. R79I  0.217 ± 0.23
14. T147A  0.279 ± 0.55
15. L62W  0.305 ± 0.099
16. D442K  0.322 ± 0.1
17. T130E  0.325 ± 0.53
18. R127H  0.326 ± 0.35
19. D478R  0.412 ± 0.24
20. C299Y  0.416 ± 0.24
21. S217K  0.417 ± 0.29
22. R127G  0.421 ± 0.18
23. S506W  0.477 ± 0.064
24. K253Y  0.499 ± 0.15
25. R139N  0.522 ± 0.21
26. S412Q  0.66 ± 0.076
27. Y394A  0.692 ± 0.2
28. S217M  0.709 ± 0.02
29. D238T  0.755 ± 0.16
30. P492C  0.756 ± 0.18
31. V362H  0.807 ± 0.3
32. V104E  0.823 ± 0.34
33. P254M  0.826 ± 0.054
34. P119D  0.86 ± 0.28
35. L28K  0.863 ± 0.19
36. K253V  0.867 ± 0.22
37. Q94H  0.885 ± 0.24
38. S107Y  0.891 ± 0.32
39. P129C  0.895 ± 0.2
40. S491V  0.901 ± 0.37
41. S491N  0.925 ± 0.47
42. A510T  0.933 ± 0.29
43. T147V  0.966 ± 0.9
44. L273A  0.967 ± 0.28
45. S169C  0.968 ± 0.17
46. A265I  0.975 ± 0.23
47. G274R  0.983 ± 0.14
48. A321S  1.01 ± 0.28
49. T390R  1.02 ± 0.31
50. P115N  1.02 ± 0.11
51. K501N  1.03 ± 0.25
52. Q425G  1.04 ± 0.18
53. V256G  1.05 ± 0.24
54. E353A  1.07 ± 0.18
55. G251T  1.09 ± 0.15
56. A321Q  1.11 ± 0.17
57. A134L  1.11 ± 0.76
58. A265V  1.11 ± 0.14
59. L283W  1.14 ± 0.032
60. G469V  1.14 ± 0.17
61. G268E  1.14 ± 0.28
62. E353R  1.14 ± 0.19
63. P282Y  1.17 ± 0.27
64. G469M  1.18 ± 0.044
65. T468D  1.18 ± 0.066
66. A265L  1.21 ± 0.35
67. E171P  1.23 ± 0.76
68. P466G  1.23 ± 0.09
69. E347R  1.23 ± 0.15
70. P254C  1.24 ± 0.51
71. Q276H  1.26 ± 0.15
72. P254V  1.27 ± 0.26
73. A404P  1.28 ± 0.2
74. D502Y  1.33 ± 0.25
75. A321I  1.33 ± 0.21
76. Q108T  1.35 ± 0.6
77. P116C  1.36 ± 0.37
78. V199I  1.37 ± 0.24
79. V256W  1.37 ± 0.027
80. S169G  1.42 ± 0.78
81. V80I  1.57 ± 0.32
82. T130F  1.71 ± 0.24
83. L444C  1.96 ± 0.078
